Experimental data published in the supplement of paper PMC10567573.

B1: GOLPH3 (parent)
chain: FAPLLDEQYDLATKRVRQLLDLDP
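Further: lentivirally expressed fusions sorted by FACS into six bins by GFP to DsRed ratio, PSI derived from sequencing read proportions per bin multiplied by bin number.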

Variants of: B1
Experiment: protein stability index of a GFP-peptide fusion (GPS, HEK-293T) (PSI 1-6); higher = more stable
Conditions: c terminus: a fixed tail appended
FAPLLDEQYDLATKRVRQLLDLDD [P24D] showed a protein stability index of 1.87.
For FAPLLDEQYDLATKRVRQLLDLDG [P24G], the protein stability index was 2.28.
With FAPLLDEQYDLATKRVRQLLDLDE [P24E] the protein stability index was 2.46.
With FAPLLDEQYDLATKRVRQLLDLDA [P24A] the protein stability index was 1.81.
Variant FAPLLDEQYDLATKRVRQLLDLDF [P24F] has a protein stability index of 3.43.
For FAPLLDEQYDLATKRVRQLLDLDC [P24C], the protein stability index was 2.36.
With FAPLLDEQYDLATKRVRQLLDLEP [D23E] the protein stability index was 1.87.
FAPLLDEQYDLATKRVRQLLDLTP [D23T] gave a protein stability index of 1.94.
In the case of FAPLLDEQYDLATKRVRQLLDLIP [D23I], the protein stability index is reported as 1.62.
Variant FAPLLDEQYDLATKRVRQLLDLLP [D23L] has a protein stability index of 2.01.
For FAPLLDEQYDLATKRVRQLLDLKP [D23K], the protein stability index was 1.78.
Work on FAPLLDEQYDLATKRVRQLLDLNP [D23N] yielded a protein stability index of 2.85.
With FAPLLDEQYDLATKRVRQLLDLHP [D23H] the protein stability index was 1.69.
FAPLLDEQYDLATKRVRQLLDLRP [D23R] gave a protein stability index of 2.72.
With FAPLLDEQYDLATKRVRQLLDLPP [D23P] the protein stability index was 1.8.
FAPLLDEQYDLATKRVRQLLDLAP [D23A] showed a protein stability index of 2.07.
For FAPLLDEQYDLATKRVRQLLDLYP [D23Y], the protein stability index was 2.12.
With FAPLLDEQYDLATKRVRQLLDLWP [D23W] the protein stability index was 3.32.
With FAPLLDEQYDLATKRVRQLLDLGP [D23G] the protein stability index was 2.65.
Variant FAPLLDEQYDLATKRVRQLLDLSP [D23S] has a protein stability index of 1.85.
Variant FAPLLDEQYDLATKRVRQLLDLMP [D23M] has a protein stability index of 1.53.
For FAPLLDEQYDLATKRVRQLLDLQP [D23Q], the protein stability index was 2.11.
Work on FAPLLDEQYDLATKRVRQLLDLCP [D23C] yielded a protein stability index of 2.41.
Variant FAPLLDEQYDLATKRVRQLLDLVP [D23V] has a protein stability index of 1.6.
In the case of FAPLLDEQYDLATKRVRQLRDLDP [L20R], the protein stability index is reported as 1.91.
Work on FAPLLDEQYDLATKRVRQLFDLDP [L20F] yielded a protein stability index of 1.83.
In the case of FAPLLDEQYDLATKRVRQLKDLDP [L20K], the protein stability index is reported as 2.59.
For FAPLLDEQYDLATKRVRQLIDLDP [L20I], the protein stability index was 2.59.
FAPLLDEQYDLATKRVRQLVDLDP [L20V] showed a protein stability index of 1.94.
In the case of FAPLLDEQYDLATKRVRQLEDLDP [L20E], the protein stability index is reported as 2.76.
In the case of FAPLLDEQYDLATKRVRQLTDLDP [L20T], the protein stability index is reported as 2.27.
With FAPLLDEQYDLATKRVRQLWDLDP [L20W] the protein stability index was 2.11.
Variant FAPLLDEQYDLATKRVRQLNDLDP [L20N] has a protein stability index of 2.25.
Work on FAPLLDEQYDLATKRVRQLDDLDP [L20D] yielded a protein stability index of 2.34.
For FAPLLDEQYDLATKRVRQLHDLDP [L20H], the protein stability index was 1.98.
For FAPLLDEQYDLATKRVRQLMDLDP [L20M], the protein stability index was 2.3.
Variant FAPLLDEQYDLATKRVRQLADLDP [L20A] has a protein stability index of 2.92.
Variant FAPLLDEQYDLATKRVRQLQDLDP [L20Q] has a protein stability index of 2.24.
FAPLLDEQYDLATKRVRQLPDLDP [L20P] showed a protein stability index of 3.2.
FAPLLDEQYDLATKRVRQLYDLDP [L20Y] showed a protein stability index of 1.94.
FAPLLDEQYDLATKRVRQLCDLDP [L20C] gave a protein stability index of 2.27.
With FAPLLDEQYDLATKRVRQLSDLDP [L20S] the protein stability index was 2.53.
Work on FAPLLDEQYDLATKRVRQLGDLDP [L20G] yielded a protein stability index of 2.42.
With FAPLLDEQYDLATKRVRQRLDLDP [L19R] the protein stability index was 1.65.
FAPLLDEQYDLATKRVRQSLDLDP [L19S] gave a protein stability index of 2.21.
FAPLLDEQYDLATKRVRQQLDLDP [L19Q] gave a protein stability index of 2.24.
Work on FAPLLDEQYDLATKRVRQPLDLDP [L19P] yielded a protein stability index of 2.65.
With FAPLLDEQYDLATKRVRQILDLDP [L19I] the protein stability index was 2.46.
For FAPLLDEQYDLATKRVRQMLDLDP [L19M], the protein stability index was 1.78.
With FAPLLDEQYDLATKRVRQWLDLDP [L19W] the protein stability index was 2.27.
FAPLLDEQYDLATKRVRQTLDLDP [L19T] showed a protein stability index of 2.61.
For FAPLLDEQYDLATKRVRQNLDLDP [L19N], the protein stability index was 1.89.
In the case of FAPLLDEQYDLATKRVRQVLDLDP [L19V], the protein stability index is reported as 2.33.
Work on FAPLLDEQYDLATKRVRQYLDLDP [L19Y] yielded a protein stability index of 1.85.
FAPLLDEQYDLATKRVRQHLDLDP [L19H] gave a protein stability index of 2.09.
In the case of FAPLLDEQYDLATKRVRQKLDLDP [L19K], the protein stability index is reported as 2.14.
FAPLLDEQYDLATKRVRQGLDLDP [L19G] showed a protein stability index of 2.26.
Work on FAPLLDEQYDLATKRVRQLLDYDP [L22Y] yielded a protein stability index of 2.29.
Variant FAPLLDEQYDLATKRVRQLLDSDP [L22S] has a protein stability index of 2.29.
In the case of FAPLLDEQYDLATKRVRQLLDQDP [L22Q], the protein stability index is reported as 2.5.
Variant FAPLLDEQYDLATKRVRQLLDDDP [L22D] has a protein stability index of 2.75.
With FAPLLDEQYDLATKRVRQLLDTDP [L22T] the protein stability index was 2.21.
For FAPLLDEQYDLATKRVRQLLDKDP [L22K], the protein stability index was 2.27.
FAPLLDEQYDLATKRVRQLLDVDP [L22V] gave a protein stability index of 2.2.
FAPLLDEQYDLATKRVRQLLDIDP [L22I] gave a protein stability index of 2.45.
With FAPLLDEQYDLATKRVRQLLDHDP [L22H] the protein stability index was 2.55.
For FAPLLDEQYDLATKRVRQLLDWDP [L22W], the protein stability index was 1.83.
Variant FAPLLDEQYDLATKRVRQLLDGDP [L22G] has a protein stability index of 2.58.
With FAPLLDEQYDLATKRVRQLLDNDP [L22N] the protein stability index was 2.46.
In the case of FAPLLDEQYDLATKRVRQLLDADP [L22A], the protein stability index is reported as 3.04.
Work on FAPLLDEQYDLATKRVRQLLDEDP [L22E] yielded a protein stability index of 3.16.
FAPLLDEQYDLATKRVRQLLDFDP [L22F] showed a protein stability index of 2.61.
Variant FAPLLDEQYDLATKRVRQLLDRDP [L22R] has a protein stability index of 2.26.
Work on FAPLLDEQYDLATKRVRQLLDCDP [L22C] yielded a protein stability index of 1.95.
For FAPLLDEQYDLATKRVRQLLDMDP [L22M], the protein stability index was 2.58.
Variant FAPLLDEQYDLATKRVRQLLDPDP [L22P] has a protein stability index of 2.06.
FAPLLDEQYDLATKRVRQLLVLDP [D21V] gave a protein stability index of 2.79.
For FAPLLDEQYDLATKRVRQLLRLDP [D21R], the protein stability index was 1.55.
FAPLLDEQYDLATKRVRQLLNLDP [D21N] showed a protein stability index of 2.12.
With FAPLLDEQYDLATKRVRQLLELDP [D21E] the protein stability index was 2.08.
Work on FAPLLDEQYDLATKRVRQLLKLDP [D21K] yielded a protein stability index of 1.64.
FAPLLDEQYDLATKRVRQLLGLDP [D21G] showed a protein stability index of 2.29.
With FAPLLDEQYDLATKRVRQLLQLDP [D21Q] the protein stability index was 2.1.
With FAPLLDEQYDLATKRVRQLLILDP [D21I] the protein stability index was 1.45.
Work on FAPLLDEQYDLATKRVRQLLSLDP [D21S] yielded a protein stability index of 1.95.
For FAPLLDEQYDLATKRVRQLLYLDP [D21Y], the protein stability index was 1.88.
In the case of FAPLLDEQYDLATKRVRQLLWLDP [D21W], the protein stability index is reported as 2.22.
Variant FAPLLDEQYDLATKRVRQLLHLDP [D21H] has a protein stability index of 1.55.
Work on FAPLLDEQYDLATKRVRQLLTLDP [D21T] yielded a protein stability index of 1.9.
Variant FAPLLDEQYDLATKRVRQLLPLDP [D21P] has a protein stability index of 1.48.
For FAPLLDEQYDLATKRVRQLLLLDP [D21L], the protein stability index was 2.1.
Work on FAPLLDEQYDLATKRVRQLLFLDP [D21F] yielded a protein stability index of 3.68.
Variant FAPLLDEQYDLATKRVRQLLALDP [D21A] has a protein stability index of 1.47.
FAPLLDEQYDLATKRVRQLLMLDP [D21M] gave a protein stability index of 1.85.
